According to patent US20250034222:

Assay: SEC after Ni-NTA purification, area under monomer and dimer peaks

B1: WT IL-38 (residues 3-152, initiator methionine, C-terminal His6 tag) (protein)
chain: MSLPMARYYIIKYADQKALYTRDGQLLVGDPVADNCCAEKICILPNRGLARTKVPIFLGIQGGSRCLACVETEEGPSLQLEDVNIEELYKGGEEATRFTFFQSSSGSAFRLEAAAWPGWFLCGPAEPQQPVQLTKESEPSARTKFYFEQSW
  % monomer upon purification: WT IL-38 forms ˜20% dimer upon purification, ˜80% monomer
